Numbering of substitutions follows the chain as printed. Names and notes keep the numbering of the source.
T1: CXCR2:YFP fusion protein (UniProt P25025 1-360)
T1 construct: whole, on cells
T1 sequence (looked up): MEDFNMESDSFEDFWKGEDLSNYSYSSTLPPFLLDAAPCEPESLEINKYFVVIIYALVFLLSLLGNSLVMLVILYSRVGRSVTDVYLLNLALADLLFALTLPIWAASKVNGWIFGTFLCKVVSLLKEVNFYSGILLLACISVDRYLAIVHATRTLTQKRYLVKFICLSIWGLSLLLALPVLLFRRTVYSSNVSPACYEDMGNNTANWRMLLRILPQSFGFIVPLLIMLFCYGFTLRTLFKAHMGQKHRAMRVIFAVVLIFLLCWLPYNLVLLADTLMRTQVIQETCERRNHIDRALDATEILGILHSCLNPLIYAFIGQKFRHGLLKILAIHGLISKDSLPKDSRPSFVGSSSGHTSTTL

B1: murine monoclonal antibody 515H7 (antibody, V domains shown)
VH: EVNLVESGGGLVQPGGSLRLSCATSGFTFTDNYMSWVRQPPGKALEWLGFIRNKANGYTTDYSASVRGRFTISRDNSQSILYLQMNALRAEDSATYYCARDVGSNYFDYWGQGTTLTVSS
VL: DIVMSQSPSSLAVSAGEKVTMSCKSSQSLFNSRTRKNYLAWYQQKPGQSPKLLIYWASARDSGVPARFTGSGSETYFTLTISRVQAEDLAVYYCMQSFNLRTFGQGTKVEIK
B2: anti-CXCR4 chimeric Mab c515H7 (antibody, human IgG1, kappa, V domains shown)
VH: B1 VH
VL: DIVMSQSPSSLAVSAGEKVTMSCKSSQSLFNSRTRKNYLAWYQQKPGQSPKLLIYWASARDSGVPARFTGSGSETYFTLTISRVQAEDLAVYYCMQSFNLRTFGQGTKVEIKR
notes: also called chimeric 515H7; chimeric antibody
B3: humanized antibody Hz515H7 VH1 D76N VL2.2 (antibody, human IgG1, kappa, V domains shown)
VH: EVQLVESGGGLVQPGRSLRLSCTASGFTFTDNYMSWVRQAPGKGLEWVGFIRNKANGYTTEYAASVKGRFTISRDNSKSIAYLQMNSLKTEDTAVYYCARDVGSNYFDYWGQGTLVTVSS
VL: B2 VL with S5T, S9D, A15L, K18R, V19A, S49P, A66D, L89V
notes: human IgG1/kappa format; also called hz515H7VL2.2
B4: humanized antibody Hz515H7 VH1/c515H7 VL (antibody, human IgG1, V domains shown)
VH: B3 VH with N76D
VL: B2 VL
notes: also called VH1 combined with the chimeric VL (cVL); VH1 combined with the murine VL
B5: humanized antibody Hz515H7 VH1 D76N VL2 (antibody, human IgG1, kappa, V domains shown)
VH: B3 VH
VL: B2 VL with S5T, A15L, K18R, V19A
notes: human IgG1/kappa format; Biotinylated in the IHC study; also called hz515H7VL2; hz515H7 VH D76N VL2
B6: humanized antibody Hz515H7 VH1 VL1 (antibody, human IgG1, kappa, V domains shown)
VH: B3 VH with N76D
VL: DIVMTQSPDSLAVSLGERATINCKSSQSLFNSRTRKNYLAWYQQKPGQPPKLLIYWASTRESGVPDRFSGSGSGTDFTLTISSLQAEDVAVYYCMQSFNLRTFGQGTKVEIKR
notes: human IgG1/kappa format; also called humanized variant 515H7 VH variant 1 VL variant 1
B7: humanized antibody Hz515H7 VH1 D76N VL2.1 (antibody, human IgG1, kappa, V domains shown)
VH: B3 VH
VL: B2 VL with S5T, S9D, A15L, K18R, V19A, S49P, A66D, T69S
notes: human IgG1/kappa format; also called hz515H7VL2.1
B8: hz515H7 VH1 VL2 (antibody, human IgG1, kappa, V domains shown)
VH: B3 VH with N76D
VL: B2 VL with S5T, A15L, K18R, V19A
notes: also called VH1 combined with variant 2 of VL
B9: humanized antibody Hz515H7 VH1 D76N VL2.3 (antibody, human IgG1, kappa, V domains shown)
VH: B3 VH
VL: B6 VL with I21M, N22S, T59A, E61D, S69T, G74E, D76Y, V89L
notes: human IgG1/kappa format; also called hz515H7VL2.3
B10: CXCR4/Rluc fusion protein (receptor, UniProt P61073 1-352, looked up)
chain: MEGISIYTSDNYTEEMGSGDYDSMKEPCFREENANFNKIFLPTIYSIIFLTGIVGNGLVILVMGYQKKLRSMTDKYRLHLSVADLLFVITLPFWAVDAVANWYFGNFLCKAVHVIYTVNLYSSVLILAFISLDRYLAIVHATNSQRPRKLLAEKVVYVGVWIPALLLTIPDFIFANVSEADDRYICDRFYPNDLWVVVFQFQHIMVGLILPGIVILSCYCIIISKLSHSKGHQKRKALKTTVILILAFFACWLPYYIGISIDSFILLEIIKQGCEFENTVHKWISITEALAFFHCCLNPILYAFLGAKFKTSAQHALTSVSRGSSLKILSKGKRGGHSSVSTESESSSFHSS
notes: whole, on cells; Transiently expressed in HEK293 cells for BRET; also called CXCR4 tagged with luciferase; not shown: Renilla reniformis luciferase (Rluc)

Columns and labels:
[1] = target: constitutively active mutant (CAM) Asn^119Ser CXCR4 receptor (human) (UniProt P61073); test: cell-based or functional assay
[2] = target: T2, human CXCR4 receptor (human, UniProt P61073 1-352); test: cell-based or functional assay
[3] = target: T2, human CXCR4 receptor; test: competition of [^125I]SDF-1 (1 nM) binding, Mab at 100 nM, SPA, CHO-K1 membranes expressing human CXCR4
Protocol: (§1) CHO-K1 cells, stably and constitutively expressing human CXCR4 receptor were obtained upon transfection of naïve CHO-K1 cells (ATCC CCL-61) with a mammalian expression vector carrying the whole coding sequence of human CXCR4 receptor (RefSeq NM_{—}003467). Cells were propagated in complete culture medium [DMEM-Ham's F12 supplemented with 5% fetal calf serum (FCS) and 500 μg/ml of geneticin]. Radioligand binding experiments were conducted on cell membranes obtained upon mechanical scrapping of CHO/CXCR4 cells in lysis buffer [Hepes 20 mM, pH 7.4, NaCl 150 mM] followed by centrifugation (10000 g, 15 min). […] Upon centrifugation [1000 g for 10 min.] radioactive counts were measured in a scintillation counter (TopCount, Perkin Elmer).

[4] = target: T2, human CXCR4 receptor; test: dose-dependent inhibition of [^125I]SDF-1 binding, SPA, CHO-K1 membranes expressing human CXCR4
Protocol: as §1

[5] = target: T2, human CXCR4 receptor; test: competition of [^125I]SDF-1 (1 nM) binding, SPA, CHO-K1 membranes expressing human CXCR4
Protocol: as §1

[6] = target: T2, human CXCR4 receptor; test: flow cytometry competition on CXCR4 transfected NIH3T3 cells; competitor: biotinylated murine 515H7
Description: In a first series of experiments, we constructed and analysed the anti-CXCR4 binding activities of the three first humanized variants. […] Therefore, VH1 was combined with the three different variants of VL (FIG. 23D-F).

[7] = target: T1, CXCR2:YFP fusion protein; test: BRET in transiently transfected HEK293 cells
Protocol: The day after, cells were distributed in poly-lysine pre-coated white 96 MW plates in complete culture medium [DMEM supplemented with 10% FBS]. Cells were first cultivated at 37° C. with CO₂ 5% in order to allow cell attachment to the plate. Cells were then starved with 200 μl DMEM/well overnight. Immediately prior to the BRET experiment, DMEM was removed and cells were quickly washed with PBS. […] After incubation for further 10 minutes at 37° C., light-emission acquisition at 485 nm and 530 nm was initiated using the Mithras LB940 multilabel reader (Berthold) (1 s/wavelength/well repeated 15 times at room temperature).
Calculation of BRET ratio was performed as previously described (Angers et al., 2000): [(emission_{530 nm})−(emission_{485 nm})×Cf]/(emission_{485 nm}), where Cf=(emission_{530 nm}) (emission_{485 nm}) for cells expressing the Rluc fusion protein alone under the same experimental conditions. […] For sake of readability, results are expressed in milliBRET units (mBU); mBU corresponds to the BRET ratio multiplied by 1000.

Molecule | IC50 in [^35S]GTPγS binding, NIH3T3/CXCR4 cells [2] [nM] | inhibition of SDF-1-induced β-arrestin recruitment (BRET) [2] [%] | % inhibition of [^125I]SDF-1 [5] [%] | % of inhibition of [^35S]GTPγS binding stimulated by SDF-1 (100 nM) [2] [%] | percentage of inhibition of SDF-1-induced BRET increase, CXCR4 homo-dimers [2] [%] | further results
T140 (peptide) | – | – | – | – | – | inhibition of SDF-1-stimulated [^35S]GTPγS binding [1]: -159%; inhibition of basal [^35S]GTPγS binding [1]: -17%
B1 | 1.9 | ~95 | – | – | – | IC50 in [^35S]GTPγS binding, Hela cells [2]: 0.2 nM; decrease in SDF-1-induced U937 cells migration [2]: > 80%
B2 | 1.5 | ~93 | – | – | – | % inhibition of [^125I]SDF-1 [3]: 55%; IC50 in [^35S]GTPγS binding, Hela cells [2]: 0.6 nM; decrease in SDF-1-induced U937 cells migration [2]: > 80%
B3 | 5.19 | ~82 | 61 | 66 | ~33 | IC50 [4]: 5.91 nM
B4 | – | – | – | – | – | binding result [6]: binds
B5 | 3.86 | ~94 | 77 | 86 | ~88 | IC50 [4]: 1.44 nM; IC50, SDF-1 induced U937 cell migration [2]: 4.53 ng/mL
B6 | – | – | – | – | – | binding result [6]: binds
B7 | 4.05 | ~81 | 68 | 69 | ~65 | IC50 [4]: 6.69 nM
B8 | – | – | – | – | – | binding result [6]: binds
B9 | 8.5 | ~71 | 49 | 58 | ~21 | –
B10 | – | – | – | – | – | binding result [7]: binds
